# Measured values published in PMC4084830 (Nature structural & molecular biology, 2013).
# What was measured:
# glucokinase (GK) = target: T1, glucokinase (GK) (Mus musculus, UniProt P52792); assay: Steady-state kinetics of recombinant wild-type mouse glucokinase; type: biochemical; settings: vs vehicle
# T1 sequence (P52792 1-465): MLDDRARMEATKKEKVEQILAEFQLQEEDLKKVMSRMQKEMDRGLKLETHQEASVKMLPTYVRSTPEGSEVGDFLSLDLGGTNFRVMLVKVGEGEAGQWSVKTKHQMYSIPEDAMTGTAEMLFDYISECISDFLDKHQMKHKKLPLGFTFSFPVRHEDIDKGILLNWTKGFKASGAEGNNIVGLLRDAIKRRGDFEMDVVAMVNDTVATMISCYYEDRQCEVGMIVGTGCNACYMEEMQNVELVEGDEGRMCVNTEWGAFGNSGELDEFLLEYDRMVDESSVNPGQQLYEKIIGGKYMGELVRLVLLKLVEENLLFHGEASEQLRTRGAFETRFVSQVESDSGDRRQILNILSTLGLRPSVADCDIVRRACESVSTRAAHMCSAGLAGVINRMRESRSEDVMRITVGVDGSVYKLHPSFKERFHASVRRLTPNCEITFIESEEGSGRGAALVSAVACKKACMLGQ
# [1] = target: recombinant mouse glucokinase (GK) isoform 1 (mouse) (UniProt P52792)
Compound,effect on GK kinetic profile (in words) (glucokinase (GK); 5 μM BAD SAHBs and/or 3 μM RO0281675),increase in Vmax (glucokinase (GK); 5 μM BAD SAHB or 3 μM RO0281675),"GK Vmax (% of vehicle), G6PDH-coupled assay with 5 μM SAHB and 7.5 nM GK, 37 °C [1] [% veh.]"
CS(=O)(=O)c1ccc([C@@H](CC2CCCC2)C(=O)Nc2nccs2)cc1 [RO0281675],no significant effect on the Hill coefficient,approximately 40%,
BAD SAHBA (S118D) (peptide),,,144
BAD SAHBA (S118L) (peptide),,,89.6
BAD SAHBA (S118pS) (peptide),,,129
